Experimental data as given in patent USRE50631 (VELOSBIO, dated 2025).

B1: ADC-E (antibody, human IgG1, kappa, V domains shown)
VH: QVQLQESGPGLVKPSQTLSLTCTVSGYAFTAYNIHWVRQAPGQGLEWMGSFDPYDGGSSYNQKFKDRLTISKDTSKNQVVLTMTNMDPVDTATYYCARGWYYFDYWGHGTLVTVSS
VL: DIVMTQTPLSLPVTPGEPASISCRASKSISKYLAWYQQKPGQAPRLLIYSGSTLQSGIPPRFSGSGYGTDFTLTINNIESEDAAYYFCQQHDESPYTFGEGTKVEIKR
modifications: SC-VC-PAB-MMAE bonded via lysine residues of the antibody (chain and positions not stated)
B2: ADC-L (antibody, human IgG1, kappa, V domains shown)
VH: B1 VH
VL: B1 VL
modifications: MAL-DPR-VC-PAB-MMAE bonded via cysteine residues of the antibody (chain and positions not stated)
notes: Antibody-drug conjugate of Ab1; also called Ab1-MAL-DPR-VC-PAB-MMAE
B3: Ab1 (antibody, human IgG1, kappa, V domains shown)
VH: B1 VH
VL: B1 VL
notes: also called unconjugated Ab1; parental antibody Ab1
B4: ADC-R (antibody, human IgG1, kappa, V domains shown)
VH: B1 VH
VL: B1 VL
modifications: deglycosylated with PNGase F; azido-PEG3-amine put on glutamine residues by microbial transglutaminase, then DBCO-PEG4-VC-PAB-DMEA-PNU-159682 via a triazole (chain and positions not stated); DAR 2.1
notes: also called Ab1-DBCO-PEG4-VC-PAB-DMEA-PNU-159682
B5: ADC-A (antibody, human IgG1, kappa, V domains shown)
VH: B1 VH
VL: B1 VL
modifications: MC-VC-PAB-MMAE bonded via cysteine residues of the antibody (chain and positions not stated); MC-VC-PAB-MMAE bonded via cysteine residues of the antibody (chain and positions not stated); DAR 3.89 to 5.09
notes: Antibody-drug conjugate of Ab1; also called Ab1-MC-VC-PAB-MMAE
B6: ADC-P (antibody, human IgG1, kappa, V domains shown)
VH: B1 VH
VL: B1 VL
modifications: MAL-Phe-C4-VC-PAB-DMEA-PNU-159682 bonded via cysteine residues of the antibody (chain and positions not stated)
notes: Antibody-drug conjugate of Ab1; also called Ab1-MAL-Phe-C4-VC-PAB-DMEA-PNU-159682
B7: ADC-F (antibody, human IgG1, kappa, V domains shown)
VH: B1 VH
VL: B1 VL
modifications: SC-VC-PAB-DM1 bonded via lysine residues of the antibody (chain and positions not stated)
B8: ADC-M (antibody, human IgG1, kappa, V domains shown)
VH: B1 VH
VL: B1 VL
modifications: MAL-Phe-C4-VC-PAB-MMAE bonded via cysteine residues of the antibody (chain and positions not stated)
notes: Antibody-drug conjugate of Ab1; also called Ab1-MAL-Phe-C4-VC-PAB-MMAE

Legend:
[1] = target: T1, human receptor tyrosine kinase like orphan receptor 1 (ROR1) (human, UniProt Q01973 30-937); assay: cell-based or functional assay
T1 sequence (Q01973 30-937): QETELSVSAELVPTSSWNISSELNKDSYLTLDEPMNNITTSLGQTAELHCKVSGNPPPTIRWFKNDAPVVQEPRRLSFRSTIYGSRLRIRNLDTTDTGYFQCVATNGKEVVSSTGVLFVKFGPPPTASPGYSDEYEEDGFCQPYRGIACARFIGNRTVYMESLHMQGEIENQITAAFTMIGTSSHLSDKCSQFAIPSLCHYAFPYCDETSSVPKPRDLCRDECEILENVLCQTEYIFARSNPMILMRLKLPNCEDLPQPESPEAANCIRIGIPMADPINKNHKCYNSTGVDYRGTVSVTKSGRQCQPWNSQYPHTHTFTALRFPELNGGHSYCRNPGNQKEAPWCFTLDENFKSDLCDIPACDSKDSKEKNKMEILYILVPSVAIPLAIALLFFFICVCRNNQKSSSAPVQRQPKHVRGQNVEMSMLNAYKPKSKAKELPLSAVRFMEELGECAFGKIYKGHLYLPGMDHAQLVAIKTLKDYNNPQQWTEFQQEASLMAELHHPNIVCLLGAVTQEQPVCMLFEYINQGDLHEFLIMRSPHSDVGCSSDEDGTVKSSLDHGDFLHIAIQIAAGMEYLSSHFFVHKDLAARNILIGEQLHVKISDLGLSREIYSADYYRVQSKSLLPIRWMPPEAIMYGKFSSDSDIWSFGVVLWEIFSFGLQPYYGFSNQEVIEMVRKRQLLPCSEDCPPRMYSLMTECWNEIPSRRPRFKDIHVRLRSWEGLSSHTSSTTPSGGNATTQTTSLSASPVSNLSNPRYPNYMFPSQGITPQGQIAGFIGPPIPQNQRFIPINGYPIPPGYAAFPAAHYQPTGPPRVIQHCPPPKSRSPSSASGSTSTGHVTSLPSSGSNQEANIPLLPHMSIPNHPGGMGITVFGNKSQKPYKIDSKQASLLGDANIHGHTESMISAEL

[2] = target: T1, human receptor tyrosine kinase like …; assay: binding to Jeko cells; column 'ADC-L Binding KD (nM)', method not described
[3] = target: T1, human receptor tyrosine kinase like …; assay: flow cytometry on Jeko-1 cells (FIG. 3B)
[4] = target: T1, human receptor tyrosine kinase like …; assay: flow cytometry on Jeko-1 cells (FIG. 3A)
[5] = target: T1, human receptor tyrosine kinase like …; assay: flow cytometry on MDA-MB-231 cells, PE anti-human IgG secondary, % maximal binding
[6] = target: T1, human receptor tyrosine kinase like …; assay: flow cytometry on Jeko-1 cells, PE anti-human IgG secondary, % maximal binding
[7] = target: T1, human receptor tyrosine kinase like …; assay: binding to Jeko cells; column 'ADC-R Binding KD (nM)', method not described
[8] = target: T1, human receptor tyrosine kinase like …; assay: binding to MDA-MB-231 cells; column 'ADC-A Binding KD (nM)', method not described
[9] = target: T1, human receptor tyrosine kinase like …; assay: binding to Jeko-1 cells; column 'ADC-A Binding KD (nM)', method not described
[10] = target: T1, human receptor tyrosine kinase like …; assay: flow cytometry on Jeko-1 cells
[11] = target: T1, human receptor tyrosine kinase like …; assay: flow cytometry on MDA-MB-231 cells
[12] = target: T1, human receptor tyrosine kinase like …; assay: binding to Jeko cells; column 'ADC-P Binding KD (nM)', method not described
[13] = target: T1, human receptor tyrosine kinase like …; assay: binding to Jeko cells; column 'ADC-M Binding KD (nM)', method not described

| Binder | IC50, cell viability (CellTiter-Glo, 72 h), Bt549 cells [1] [nM] | IC50, cell viability (CellTiter-Glo, 72 h), DOHH2 cells [1] [nM] | IC50, cell viability (CellTiter-Glo, 72 h), HBL-1 cells [1] [nM] | IC50, cell viability (CellTiter-Glo, 72 h), JHOM1 cells [1] [nM] | IC50, cell viability (CellTiter-Glo, 72 h), MDA-MB-468 cells [1] [nM] | IC50, cell viability (CellTiter-Glo, 72 h), SKOvr3 cells [1] [nM] | IC50, cell viability (CellTiter-Glo, 72 h), TMD-8 cells [1] [nM] | IC50, cell viability (CellTiter-Glo, 72 h), TOV112D cells [1] [nM] | other results |
| --- | --- | --- | --- | --- | --- | --- | --- | --- | --- |
| B1 | 74.4 | 89.6 | 147 | 32.9 | 80.1 | 201 | 94.3 | 57.8 |  |
| B2 |  |  |  |  |  |  |  |  | Kd [2]: 0.15 nM |
| B3 |  |  |  |  |  |  |  |  | EC50 [3]: 0.0165 µg/mL; EC50 [4]: 0.0164 µg/mL; EC50 [5]: 0.0328 µg/mL; EC50 [6]: 0.0136 µg/mL |
| B4 |  |  |  |  |  |  |  |  | Kd [7]: 0.25 nM |
| B5 | 13.5 | 129 | 118 | 15.6 | 23.5 | 62.6 | 122 | 62.4 | IC50, cell viability (CellTiter-Glo, 72 h), A2008 cells [1]: 125 nM; IC50, cell viability (CellTiter-Glo, 72 h), HCC1187 cells [1]: 6.8 nM; EC50 [3]: 0.0221 µg/mL; Kd [8]: 0.32 nM; EC50 [4]: 0.0216 µg/mL; Kd [9]: 0.1 nM; EC50 [10]: 0.017 µg/mL; EC50 [11]: 0.0485 µg/mL |
| B6 |  |  |  |  |  |  |  |  | Kd [12]: 0.11 nM |
| B7 | > 1000 | > 1000 | > 1000 | > 1000 | > 1000 | > 1000 | > 1000 | > 1000 | IC50, cell viability (CellTiter-Glo, 72 h), A2008 cells [1]: > 1000 nM; IC50, cell viability (CellTiter-Glo, 72 h), HCC1187 cells [1]: > 1000 nM |
| B8 |  |  |  |  |  |  |  |  | Kd [13]: 0.12 nM |
